Experimental data: US9376486 (NATIONAL UNIVERSITY OF SINGAPORE, dated 2016)

B1: Fab HM14c10 (Fab, V domains shown)
VH: EVQLVESGGGVVQPGRSLRLSCAASGFSFSSYGMHWVRQAPGKGLEWVAVIWYDGSKTYYGDSVKGRFTISKDNSKKMVNLQMDSLGVEDTAFYYCARGIAGGWAFWGIDLWGQGTLVTVSS
VL: DVVMTQSPGTLSLSPGERATLSCRASQNVYSYLGWYQHKPGRSPRLLIFGVTSRATGVPDRFSGSGSGTDFTLTISRLEPEDFAVYYCQQYAGSAYTFGQGTKVEIKR
notes: also called HM14c10Fab; Fab 14c10
B2: HM14c10 (recombinant human IgG1 antibody 14c10, clone 8) (antibody, V domains shown)
VH: EVQLVESGGGVVQPGRSLRLSCAASGFSFSSYGMHWVRQAPGKGLEWVAVIWYDGSKTYYGDSVKGRFTISKDNSKKMVNLQMDSLGVEDTAFYYCARGIAGGWAFWGIDLWGQGTLVTVSS
VL: DVVMTQSPGTLSLSPGERATLSCRASQNVYSYLGWYQHKPGRSPRLLIFGVTSRATGVPDRFSGSGSGTDFTLTISRLEPEDFAVYYCQQYAGSAYTFGQGTKVEIKR
notes: also called 14c10.8; recombinant IgG1 14c10 antibody

Experiments:
[1] = biological target: T1, Dengue virus serotype 1 strain PVP 159 (DENV1/SG/07K3640DK1/2008) E protein, on whole virus (Dengue virus serotype 1, UniProt P27909 281-676)
T1 construct: also called DENV1 E protein

[2] = biological target: T2, Dengue virus serotype 2 (DENV2) E protein, on whole virus (Dengue virus serotype 2, UniProt P29990 281-775); experiment: sandwich ELISA on live whole virus
T2 construct: mature; also called Dengue serotype 2

[3] = biological target: T3, Dengue virus serotype 3 (DENV3) E protein, on whole virus (Dengue virus serotype 3, UniProt P27915 281-773); experiment: sandwich ELISA on live whole virus
T3 construct: mature; also called Dengue serotype 3

[4] = biological target: T4, Dengue virus serotype 4 (DENV4) E protein, on whole virus (Dengue virus serotype 4, UniProt P09866 280-774); experiment: sandwich ELISA on live whole virus
T4 construct: mature; also called Dengue serotype 4

| Binder | binding result [1] | binding result [2] | binding result [3] | binding result [4] |
| --- | --- | --- | --- | --- |
| B1 | binds |  |  |  |
| B2 |  | no binding | no binding | no binding |
